± gives the half width of the 95% confidence interval.
Assay: folding stability dG unfold from chymotrypsin proteolysis; higher = more stable
Procedure, shortened: (§1)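 Unfolding free energy was derived, per protease or combined, against a sequence-predicted unfolded-state K50 and a shared folded-state K50, starting from K50 inferred by Bayesian fitting of sequencing counts. Digestion with trypsin and chymotrypsin was carried out on designed mini-proteins under 80 residues without cysteine in a PA-tagged cDNA display construct. Only designs with AlphaFold2 dimer inter-PAE above 15 were kept.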

| Sequence | folding stability dG unfold [kcal/mol] |
| --- | --- |
| SAGGSAGGSMKTITVPPEVLAALPLEEIVERNTSPDEEVEVEFVEEPGPVTVIIDTKKKPEHHSAGGSAGGS [r12_716_JUSTAS] | 0.551 ± 0.015 |
| SAGGSSMINLTITITVKDPSTGKVTTIPLNKKLTPEEIEELVKEIIEKIEKENPDKPIEVLKVEINSAGGSA [r2_59_JUSTAS] | 2.48 ± 0.12 |
| SMVLARIKVRVRDPVTGEELDVEIDLLAPVEVAEEAAEEFRKLFPGLEVEVDLVEVVPLPPVTPEQLAKESA [r9_421_TrMRF] | 2.823 ± 0.017 |
| SAHITISIEVPLPNLKGQTPEEAREVAKDKAREIAKMFNPEFGIKVKEVEVEPHPDEGWLKVDITFEPKSAG [r14_310_TrROS] | 0.596 ± 0.05 |
| SAGGSAGGGMSFTLTSEKKVPGVNVTLTTVTGPGVTITYDPATGKATVEFPDSVTTVPLSSITTSAGGSAGG [r6_512_JUSTAS] | 0.359 ± 0.16 |
| SAGGSAKPVMVRIKFPNMPPEKLQDAFQEYGMQPQNMDPNKGEMIIMIPWEAAEEIQDKNGFKIEISAGGSA [r15_731_TrROS] | 0.8 ± 0.17 |
| SAGGSAGGSAGSSTSTSSDGVLTTYFPDGTVTSTETKPDPSTGTVLAVSTTTTPLPPDTLSAGGSAGGSAGG [r11_497_JUSTAS] | 0.572 ± 0.035 |
| SAGGSAGGSAGGKVAIVTASPEKAKEIAKKAGIKDVIIIPKNKPELLGPNVDKVILVAEKSAGGSAGGSAGG [r7_381_TrMRF] | -1.94 ± 0.33 |
| SAGGSAGGSAGDEWITIWFLFPSPEQAKDIADPLASNGLNIDVETHRMPDGNYWVNITIPSAGGSAGGSAGG [r11_677_TrROS] | 3.34 ± 0.089 |
| SAGMKPEEVRVIEIPPGMTVEEIIEAIEKEGPLRIRVEGKELEFESKEDIEAAIRNAPEPVRIEVRRLSAGG [r19_95_TrROS_Hall] | 1.05 ± 0.092 |
| SKVKPGEKVEYVEITITVDVKSVEELEKKLRELLGVKEVKVTVTEENGKLTLTIVVKSKEEADKLKELLSSA [r9_764_TrROS_Hall] | 1.73 ± 0.066 |
| SAGGSAGGSAGGMVIVKVHLPNGNTLTFVFPGMTLDEIREELASQGGKIKEIEIVPMENSAGGSAGGSAGGS [r10_572_TrROS] | 2.323 ± 0.02 |
| SRDLLKELAEKFPNFEPKGVQEEPTDNGGVKLQVIARHPKNGRYYKIEITVPPDGKIEDIEIEPVPLDDLSA [r9_274_TrROS] | 2.823 ± 0.021 |
| SAGGDVVRVRVRLRRFEIVGDRPVYRPVDIDILAEADGDPEAARRRAEREARRLAEEYGAEIEDIELFPSAG [r5_497_TrMRF] | 2.57 ± 0.04 |
| SAGGSAWIWITYQFPPGGTLEQAKEQIVNYLQRLFGWKIEIPDIEVEREGNNWTVTFPIKIEPLPGSAGGSA [r15_105_TrROS] | 4.4 ± 0.098 |
| SGMTIKILEVDFNPLGEEDEKATITLKAEIGGEEVELKIEVYRRPDGSAIAKITLILPGSGEPFEITADISA [r9_241_TrMRF] | 4.16 ± 0.13 |

Assay: folding stability dG unfold (combined trypsin and chymotrypsin); higher = more stable
Procedure, shortened: as §1

| Sequence | folding stability dG unfold [kcal/mol] |
| --- | --- |
| SAGGSAASVVEKTLSPDGTLFVTIKVDPEKKSVPFSITTPDGTPVTVTLPPNTTKTVRVPLGEAALSAGGSA [r15_336_JUSTAS] | -0.39 ± 0.15 |
| SAGGSSPLLLTSSPTPLTLPDGGTVTLTTTRVPGDNADVVTITTTPPGTGTTTVTTLPASTAAATLSAGGSA [r2_366_JUSTAS] | 1.15 ± 0.068 |
| SAGKTVTKTKTEYEYKDGKLEKKKVKTETIEPKPKIEVKEVKITLKDGSEVTAKIVSIDPKTKKVVIELSAG [r5_735_TrROS_Hall] | 0.0452 ± 0.23 |
| SAGGSAGGNKPIMVRIKIWHDNGKTRRFFVQIPEGFDDPSELASELAKEFNKQYPNYRIEVEPFSAGGSAGG [r6_132_TrROS] | 2.78 ± 0.13 |
| SAGGSAGGSALKNAPGPDPALLKPRPVLVIPIPKDIPLEEAEALAEIFRKLYPDVPVVLDVEGGSAGGSAGG [r6_299_TrMRF] | 0.971 ± 0.05 |
| SAGGSAGGSAMKVLVTVTLTSPDGTKTTLTEEADPAELKGVLEAALPWTVETVTVYPAEELLSAGGSAGGSA [r18_107_JUSTAS] | 1.04 ± 0.089 |
| SAGGSAGGMKITVEEDPATNRLTITIEVDGHTVTIVYDKDNPNKITVTVSPNMTKDEILKALKSSAGGSAGG [r6_195_TrROS_Hall] | 2.17 ± 0.095 |
| SPRIKIDIPFFNANGHPQEVEIEYSPTDGMLMIKFPRNGYYIMIQIKRIEWEDGKLEIELDIFIMPPGDFSA [r9_587_TrROS] | 4.17 ± 0.43 |
| SAGMVITVPSDVPVEELLELARELARELGGGRVEVRTHPDNPEIVTATIDIPGTGKRILIINAPPGVLASAG [r5_912_TrMRF] | 2.52 ± 0.048 |
| SAGGSAGGSKTILIVLPPGEELTPEQLKALAAALPPDATLTILVYDPETKELHVFTFKLPEGLSAGGSAGGS [r12_913_TrROS_Hall] | 3.87 ± 0.081 |
| SAGGSAGGGITAKEAAELLEKYLKEKGYDYEVKIEEVDPVNPTVKITVTFPDGSKLEITLPIVDSAGGSAGG [r6_617_TrMRF] | 3.09 ± 0.2 |
| SAGKIKIEVVKREDGYVVVKIRFEDTGEELVITVPKEDEEKVKELAEELAEKLKEEGIEVEVEVRELPPSAG [r5_815_TrROS_Hall] | 2.86 ± 0.22 |
| SAGGMPPGYRVVLVTKEVETVTFEKKPGNENEYTTTPKIVPREEVVEVTSPEVLAELEAEGYEVTPASAGGS [r8_482_JUSTAS] | -0.0223 ± 0.11 |
| SAGGSAGGSGMKRTATVVERDPATGRVLLEITDGSKTTTRVLEGPPSGRGAASSPEIDSLSLLSAGGSAGGS [r12_421_JUSTAS] | -0.423 ± 0.098 |
| SAGGMTLDELRALLAAGKVTIEPVAPDRWLVTVRGPDGEEFTFEFESLEELLDALRAIPGLEVEVRPVSAGG [r13_600_TrROS_Hall] | 3.71 ± 0.044 |
| SAGGSAGGSMKTITVPPEVLAALPLEEIVERNTSPDEEVEVEFVEEPGPVTVIIDTKKKPEHHSAGGSAGGS [r12_716_JUSTAS] | 0.252 ± 0.092 |

| Sequence | folding stability dG unfold [kcal/mol] |
| --- | --- |
| SAGGSSMINLTITITVKDPSTGKVTTIPLNKKLTPEEIEELVKEIIEKIEKENPDKPIEVLKVEINSAGGSA [r2_59_JUSTAS] | 2.81 ± 0.25 |
| SMVLARIKVRVRDPVTGEELDVEIDLLAPVEVAEEAAEEFRKLFPGLEVEVDLVEVVPLPPVTPEQLAKESA [r9_421_TrMRF] | 2.48 ± 0.083 |
| SAHITISIEVPLPNLKGQTPEEAREVAKDKAREIAKMFNPEFGIKVKEVEVEPHPDEGWLKVDITFEPKSAG [r14_310_TrROS] | 0.824 ± 0.2 |
| SAGGSAGGGMSFTLTSEKKVPGVNVTLTTVTGPGVTITYDPATGKATVEFPDSVTTVPLSSITTSAGGSAGG [r6_512_JUSTAS] | 0.597 ± 0.099 |
| SAGGSAKPVMVRIKFPNMPPEKLQDAFQEYGMQPQNMDPNKGEMIIMIPWEAAEEIQDKNGFKIEISAGGSA [r15_731_TrROS] | 0.323 ± 0.24 |
| SAGGSAGGSAGSSTSTSSDGVLTTYFPDGTVTSTETKPDPSTGTVLAVSTTTTPLPPDTLSAGGSAGGSAGG [r11_497_JUSTAS] | 1.39 ± 0.032 |
| SAGGSAGGSAGGKVAIVTASPEKAKEIAKKAGIKDVIIIPKNKPELLGPNVDKVILVAEKSAGGSAGGSAGG [r7_381_TrMRF] | < -1 |
| SAGGSAGGSAGDEWITIWFLFPSPEQAKDIADPLASNGLNIDVETHRMPDGNYWVNITIPSAGGSAGGSAGG [r11_677_TrROS] | 2.9 ± 0.11 |
| SAGMKPEEVRVIEIPPGMTVEEIIEAIEKEGPLRIRVEGKELEFESKEDIEAAIRNAPEPVRIEVRRLSAGG [r19_95_TrROS_Hall] | 1 ± 0.089 |
| SKVKPGEKVEYVEITITVDVKSVEELEKKLRELLGVKEVKVTVTEENGKLTLTIVVKSKEEADKLKELLSSA [r9_764_TrROS_Hall] | 1.47 ± 0.16 |
| SAGGSAGGSAGGMVIVKVHLPNGNTLTFVFPGMTLDEIREELASQGGKIKEIEIVPMENSAGGSAGGSAGGS [r10_572_TrROS] | 2.28 ± 0.079 |
| SRDLLKELAEKFPNFEPKGVQEEPTDNGGVKLQVIARHPKNGRYYKIEITVPPDGKIEDIEIEPVPLDDLSA [r9_274_TrROS] | 2.61 ± 0.09 |
| SAGGDVVRVRVRLRRFEIVGDRPVYRPVDIDILAEADGDPEAARRRAEREARRLAEEYGAEIEDIELFPSAG [r5_497_TrMRF] | 2.4 ± 0.083 |
| SAGGSAWIWITYQFPPGGTLEQAKEQIVNYLQRLFGWKIEIPDIEVEREGNNWTVTFPIKIEPLPGSAGGSA [r15_105_TrROS] | 4.18 ± 0.24 |
| SGMTIKILEVDFNPLGEEDEKATITLKAEIGGEEVELKIEVYRRPDGSAIAKITLILPGSGEPFEITADISA [r9_241_TrMRF] | 3.91 ± 0.17 |

Source: the supplement of paper PMC12764529
